# According to the supplement of paper PMC9170038:
# Test system: MS2 coat protein
# Assay: apparent KD of MS2 coat protein; designed switch direction (-1 OFF switch, 1 ON switch): -1; higher = weaker reporter binding
# Outline: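 RNA switches sharing common flanks were transcribed by stalled E. coli RNA polymerase on Illumina chips. A doubling series of SNAP-549-labelled MS2 coat protein, from 0.7 or 1.5 nM to 3 µM, was applied in Tris-HCl pH 7.5 buffer with KCl, MgCl2, BSA, DTT, tRNA and Tween-20. Each step lasted 0.8–1.5 h at the bottom of the series and 10–20 min at the top. Normalised cluster fluorescence was curve-fitted, giving apparent KD as the per-design median over clusters.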
# [1] = Eterna round: R95, input ligand: FMN 200 uM
# [2] = Eterna round: R95, input ligand: microRNA oligo, concentration not stated
# [3] = Eterna round: R95, input ligand: none
# [4] = input ligand: microRNA oligo, concentration not stated
Sequence,apparent KD of MS2 coat protein [1] [nM],apparent KD of MS2 coat protein [2] [nM],apparent KD of MS2 coat protein [3] [nM],apparent KD of MS2 coat protein (input ligand: FMN 200 uM) [nM],apparent KD of MS2 coat protein [4] [nM],apparent KD of MS2 coat protein (input ligand: none) [nM]
AAAAAGACAGGAUAUACAUGAGGAUCACCCAUGUGAAACAAAAUAAAAUAAAAUAAAAGUAGAAGGGUCAAAAA [Exclusion 3 #2] (puzzle: Exclusion 3),33.8,31.9,31.7,,,
AAAAAGCGAGGAUAUACAGGAAAAGAAAAGAAAAGAAAAGCACAUGAGGAUCACCCAUGUAGAAGGCGCGAAAA [Exclusion 2 #3] (puzzle: Exclusion 2),26.1,24.7,20.8,,,
AAAACACAUGAGGAUCACCCAUGUGAGGAUAUGUUCAUUGUGAGCAAACUUAUGAUGAACAGAAGGCACAUAAA [JR_Exclusion1_Sub017] (puzzle: Exclusion 1),,38.9,,,,
"AAAACGUCAGGAUAUACAGAAGAGAUCACAAAAAAAAAAAAACAUGAGGAUCACCCAUGUAGAAGGGACAAAAA [Ex2 Malc#2] (Eterna round: R96, puzzle: Exclusion 2)",,,,185,81.2,115
"AAAACUAACACGAAAGUGUUAGAAUAAUAAGCUUGUGGUACAUGAGGAUCACCCAUGUCCUCAUAAGCUCGUCUUAU [Mat - Sensor v3 - Turn-off var 2 - D45] (puzzle: Sensor v3, turn-off variant 2)",28,46.4,25.8,,,
"AAAACUGGUGUUAGGAUAUUCCUAGGAAAGCUUGGGAAGAAGGGACAUGAGGAUCACCCAUGUCCAGUGAUCAG [Eternabot (Original) Solution 19] (Eterna round: R97, puzzle: Brourd's mod of Exclusion 4)",,,,19.1,,21.6
AAAAGAGUAGGAUAUCUGACGCGAAACAUGAGGAUCACCCAUGUAGGGCGGUCCUGCUUAAGAGAAGGGCUCUAAU [Arorxebile] (puzzle: Exclusion 5),155,119,164,,,
AAAAGCUCAGUCAGGAUAUGCAUUUGCACCGGCGAGCAGAAGGGACAUGAGGAUCACCCAUGUACGCGGCAGGG [Laaraor] (puzzle: Brourd's mod of Exclusion 4),80.8,37.1,59.9,,,
AAAAGGCAGCAGGAUAUAGUCACCAUCGGGUUGCUAGAAGGGCUAACAUGAGGAUCACCCAUGUGGGUGCAAAA [Soinsoan] (puzzle: Exclusion 6),578,452,667,,,
"AAAAUAAAGAUAGGAUAUGCAGUAUAGCAAGAUCCGGACAUGAGGAUCACCCAUGUACUUCGAAAGCAGAAGGAUCAAACAAAA [Zamale] (Eterna round: R96, puzzle: Exclusion NG 2)",,,,30.3,30,26.6
"AAACACUGAGGAUAUGCAUAACAACAAAGCCUCACGUGCCAACAUGAGGAUCACCCAUGUAGAAGGCAGUCCAA [Mod R3 Insanara 16 - Jieux - Exclusion 2] (Eterna round: R97, puzzle: Exclusion 2)",,,,25,,30
"AAACAGCAAGGAUAUACGGGCAGUGCUUAUCAUAUCAUACAACAUGAGGAUCACCCAUGUAGAAGGUGCAACAA [Ex2 #1] (Eterna round: R97, puzzle: Exclusion 2)",,,,108,,39.1
"AAACCUCACAACCGUUAAAACAUGAGGAUCACCCAUGUGCCGUAACGGCGCAUGGUCGAGCUAGGCUCGUCCAUGCA [Zamacelaso] (Eterna round: R96, puzzle: Sensor v2, turn-off variant)",,,,12,10.2,15.4
AAACUGCAUGUGAGGAUAUGCACCGACUAAACCGGGCAGAAGGCACAUGAGGAUCACCCAUGUCAUCCUAUUGC [Beederte] (puzzle: Brourd's mod of Exclusion 4),,7.99,,,,
AAAGAACAUGAGGAUCACCCAUGUGAGGAUAUGCGAAAACCGCUAACAAACCAGACGGGCAGAAGGCAUAUGGU [Leistequ] (puzzle: Exclusion 1),68.9,39.1,63.7,,,
"AAAGAAGAGAGAAAAUAACACAUGAGGAUCACCCAUGUGAGAAGAUGAGGGUGAUACAGGCUAUAUGCUCGUCUUAU (puzzle: Sensor v3, turn-off variant 1)",62.9,350,104,,,
AAAGAGCGAGGAUAUACAUGAGGAUCACCCAUGUGAAGAUGCAUGGUCUGAACGUCUGGUAGAAGGCGUAUGAA [Rebierce] (puzzle: Exclusion 3),,119,,,,
AAAGCGUGAGGAUAUGAGGCGCCGGGCCGGUUGGUGCGGAUUCAGAAGGCACAUGAGGAUCACCCAUGUCGGUA [Excls4-IV] (puzzle: Exclusion 4),,37.2,,,,
AAAGGCUAAGGAUAUGCACACAUAAACAUGAGGAUCACCCAUGUGUUCCCAGCAACCAUAGCAGAAGGUAGCGAAA [Rarebeve] (puzzle: Exclusion 5),76.5,70.1,68.7,,,
"AAAGGGAAUGAGGAUAUCGUAUUGGAUAUAGUGCGAGAAGGCAUUACAUGAGGAUCACCCAUGUUUUGUUGGGA [JR_Ex6_Sub006] (Eterna round: R97, puzzle: Exclusion 6)",,,,74.4,,33.9
"AAAGUGUUAGGAUAUAGGCGCAGCCAGACGCAGGAAGCGUCCUAGAAGGAACAUGAGGAUCACCCAUGUGGGCG [Eternabot (Original) Solution 41] (Eterna round: R97, puzzle: Exclusion 4)",,,,1180,,364
"AAAUAACGAGGAUAUAGGGUCCGGAACAUGAGGAUCACCCAUGUAUUGGAAACAACGUGGUUAGAAGGCGUUGCCC [EX5 A.15] (Eterna round: R97, puzzle: Exclusion 5)",,,,25.6,,28.7
"AAAUAAUAGAUAAAAUAAAACAUGAGGAUCACCCAUGUAGGCAGAUGAGGGUGAAACAAGCUUUUUGCUCGUCUUAU (puzzle: Sensor v3, turn-off variant 1)",63.9,477,75.1,,,
"AAAUAAUAGAUAAAAUAAAACAUGAGGAUCACCCAUGUAGGCUGAUGAGGGUGAAACAAGCUUUUUGCUCGUCUUAU (puzzle: Sensor v3, turn-off variant 1)",154,560,197,,,
"AAAUACAAGUAAAGAUCCUACAUGAGGAUCACCCAUGUGCUCGUCUUGUAAAGUACUAUCACGAAAGUGAUAGUACU [Mat - Sensor v3 - turn-off var 1 - Eli Mod - D87] (puzzle: Sensor v3, turn-off variant 1)",45.3,29.7,47.7,,,
"AAAUACCGGUGAGGAUAUUUUUAAUAGAACUUUAUGAUAUACAUGAGGAUCACCCAUGUUACUUUAAAGAAGGCAUCGGAUAAA [Mat - Exclusion NG 2 - Mod of JL - D88] (Eterna round: R96, puzzle: Exclusion NG 2)",,,,,12.1,
